# B1: 51 bp DNA without motif (dsDNA)
# DNA 1: CCTGCCACCTACACATACTTCCTACACAACCTGAGTCGTATTAATTTCGCG
# DNA 2: CGCGAAATTATACGACTCAAGTTGTGTAGGAAGTATGTGTAGGTGGCGAGG
# Target: T1, Msn2 DBD (Saccharomyces cerevisiae, UniProt P33748 643-704)
# T1 sequence: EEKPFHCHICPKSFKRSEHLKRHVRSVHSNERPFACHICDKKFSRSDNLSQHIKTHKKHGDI
# Assay: EMSA
binder,measurement,value
B1,binding result,no binding
